Results taken from patent US20100196266A1 (published 2010).
Values belong to the binder of their own block, whether it stands above or below them.

Assays:
human CD22 on cells [1] = target: T1, human CD22 on cells (human, UniProt P20273 20-847); assay: indirect FACS, FITC-GAH Fc, Namalwa cells; none 2.5
T1 construct: whole, on cells

human CD22 on cells [2] = target: T1, human CD22 on cells; assay: indirect FACS, FITC-GAH Fc, SU-DHL-6 cells; none 4.6
human CD22 on cells [3] = target: T1, human CD22 on cells; assay: indirect FACS, FITC-GAH Fc, WSU-FSCCL cells; none 2.6
human CD22 on cells [4] = target: T1, human CD22 on cells; assay: indirect flow cytometry, Namalwa cells, FITC-GAH; none 2.52
human CD22 on cells [5] = target: T1, human CD22 on cells; assay: indirect flow cytometry, FITC-GAH Fc, SU-DHL-6 cells; none 4.6
human CD74 on cells [6] = target: T2, human CD74 on cells (human, UniProt P04233 1-296); assay: indirect FACS, FITC-GAH Fc, Raji cells; none 6.8
T2 construct: whole, on cells
T2 sequence (looked up): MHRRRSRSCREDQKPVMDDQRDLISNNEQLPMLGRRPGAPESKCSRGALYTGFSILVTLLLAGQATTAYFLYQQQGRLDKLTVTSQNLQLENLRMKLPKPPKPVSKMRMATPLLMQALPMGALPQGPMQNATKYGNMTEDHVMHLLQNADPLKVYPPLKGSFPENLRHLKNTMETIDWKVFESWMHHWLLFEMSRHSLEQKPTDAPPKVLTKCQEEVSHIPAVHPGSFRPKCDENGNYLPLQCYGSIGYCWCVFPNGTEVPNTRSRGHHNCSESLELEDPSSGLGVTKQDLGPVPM

human CD74 on cells [7] = target: T2, human CD74 on cells; assay: indirect FACS, FITC-GAH Fc, Daudi cells; none 3.1
human CD74 on cells [8] = target: T2, human CD74 on cells; assay: indirect FACS, FITC-GAH Fc, Ramos cells; none 3.1
human CD74 on cells [9] = target: T2, human CD74 on cells; assay: indirect FACS, FITC-GAH Fc, Namalwa cells; none 2.5
human CD74 on cells [10] = target: T2, human CD74 on cells; assay: indirect FACS, FITC-GAH Fc, SU-DHL-6 cells; none 4.6
human CD74 on cells [11] = target: T2, human CD74 on cells; assay: indirect FACS, FITC-GAH Fc, WSU-FSCCL cells; none 2.6
human CD74 on cells [12] = target: T2, human CD74 on cells; assay: indirect flow cytometry, FITC-GAH Fc, RL cells; none 2.4
human CD74 on cells [13] = target: T2, human CD74 on cells; assay: indirect flow cytometry, FITC-GAH Fc, Raji cells; none 6.9
human CD74 on cells [14] = target: T2, human CD74 on cells; assay: indirect flow cytometry, Namalwa cells, FITC-GAH; none 2.52
human CD74 on cells [15] = target: T2, human CD74 on cells; assay: indirect flow cytometry, FITC-GAH Fc, Daudi cells; none 3.2
human CD74 on cells [16] = target: T2, human CD74 on cells; assay: indirect flow cytometry, FITC-GAH Fc, Ramos cells; none 3.1
human CD74 on cells [17] = target: T2, human CD74 on cells; assay: indirect flow cytometry, FITC-GAH Fc, Namalwa cells; none 2.6
human CD74 on cells [18] = target: T2, human CD74 on cells; assay: indirect flow cytometry, FITC-GAH Fc, SU-DHL-6 cells; none 4.6
human CD74 on cells [19] = target: T2, human CD74 on cells; assay: indirect flow cytometry, FITC-GAH Fc, WSU-FSCCL cells; none 2.7

Geometric Mean Fluorescence (human CD22 on cells [1]): 6.4
Geometric Mean Fluorescence (human CD22 on cells [2]): 11
Geometric Mean Fluorescence (human CD22 on cells [3]): 4.1
GEO MEAN Fluorescence (human CD22 on cells [4]): 6.76
Geometric Mean Fluorescence (human CD22 on cells [5]): 11
B1: epratuzumab (hLL2, humanized anti-CD22 mAb) (antibody, V domains shown)
VH: QVQLVQSGAEVKKPGSSVKVSCKASGYTFTSYWLHWVRQAPGQGLEWIGYINPRNDYTEYNQNFKDKATITADESTNTAYMELSSLRSEDTAFYFCARRDITTFYWGQGTTVTVSS
VL: DIQLTQSPSSLSASVGDRVTMSCKSSQSVLYSANHKNYLAWYQQKPGKAPKLLIYWASTRESGVPSRFSGSGSGTDFTFTISSLQPEDIATYYCHQYLSSWTFGGGTKLEIK

Geometric Mean Fluorescence (human CD74 on cells [6]): 95.1
Geometric Mean Fluorescence (human CD74 on cells [7]): 48.8
Geometric Mean Fluorescence (human CD74 on cells [8]): 23.2
Geometric Mean Fluorescence (human CD74 on cells [9]): 7.81
Geometric Mean Fluorescence (human CD74 on cells [10]): 17.3
Geometric Mean Fluorescence (human CD74 on cells [11]): 8.66
Geometric Mean Fluorescence (human CD74 on cells [12]): 7.9
Geometric Mean Fluorescence (human CD74 on cells [13]): 95.1
GEO MEAN Fluorescence (human CD74 on cells [14]): 10.1
Geometric Mean Fluorescence (human CD74 on cells [15]): 48.8
Geometric Mean Fluorescence (human CD74 on cells [16]): 23.3
Geometric Mean Fluorescence (human CD74 on cells [17]): 7.8
Geometric Mean Fluorescence (human CD74 on cells [18]): 17.3
Geometric Mean Fluorescence (human CD74 on cells [19]): 8.7
B2: milatuzumab (hLL1, humanized anti-CD74 mAb) (antibody, V domains shown)
VH: QVQLQQSGSELKKPGASVKVSCKASGYTFTNYGVNWIKQAPGQGLQWMGWINPNTGEPTFDDDFKGRFAFSLDTSVSTAYLQISSLKADDTAVYFCSRSRGKNEAWFAYWGQGTLVTVSS
VL: DIQLTQSPLSLPVTLGQPASISCRSSQSLVHRNGNTYLHWFQQRPGQSPRLLIYTVSNRFSGVPDRFSGSGSGTDFTLKISRVEAEDVGVYFCSQSSHVPPTFGAGTRLEIK
